This test addresses SARS-CoV-2 (2019-nCoV) Spike S1-His Recombinant Protein (HPLC-verified), Sino Biological Catalog Number 40591-V08H (SARS-CoV-2) (UniProt P0DTC2).

Results on 1 substance are retold here after US20240399042A1.

With “Galanthus nivalis agglutinin (GNA) (from UniProt P30617 24-128)”, the percent of S1 depleted at 15 minutes was over 90%.
